Results on two substances are retold here after patent US20150354006.

For this series, the system named is recombinant nucleosome.

NSD2 E1099K mutant protein, purified (Example 7), sequence (chain, as listed by the source E1099K): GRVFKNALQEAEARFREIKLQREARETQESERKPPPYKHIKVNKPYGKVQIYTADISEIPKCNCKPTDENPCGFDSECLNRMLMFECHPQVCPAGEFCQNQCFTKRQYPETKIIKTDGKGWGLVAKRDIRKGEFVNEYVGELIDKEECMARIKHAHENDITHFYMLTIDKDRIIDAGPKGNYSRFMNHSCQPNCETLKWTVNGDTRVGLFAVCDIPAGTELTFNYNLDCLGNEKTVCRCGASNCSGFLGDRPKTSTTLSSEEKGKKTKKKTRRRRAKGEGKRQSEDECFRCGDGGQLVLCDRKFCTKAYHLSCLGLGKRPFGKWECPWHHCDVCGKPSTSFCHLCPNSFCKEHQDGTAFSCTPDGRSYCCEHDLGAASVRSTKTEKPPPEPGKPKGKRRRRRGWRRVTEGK
NSD2 E1087Q mutation (Example 7), sequence (chain, as listed by the source E1087Q): as the sequence (chain, as listed by the source E1099K) above, with E133Q, K145E counted along it

Consider “NSD2 E1099K mutant protein, purified (Example 7)”, for which the “SAH production by LC/MS/MS in an enzymatic reaction with SAM and nucleosome (FIG. 9)” value is listed as “the NSD2 E1099K protein gains extra activity on recombinant nucleosome compared to NSD2 WT”.

Take NSD2 E1087Q mutation (Example 7): the “SAH production by LC/MS/MS in an enzymatic reaction with SAM and nucleosome (FIG. 9)” value is “the NSD2 E1087Q mutation has less N-methyltransferase activity in each case”.
